Test results reported in patent US20210032351A1 (XDCEXPLORER SHANGHAI, published 2021).
Residue numbers refer to the chain shown, from its start. One block for each binder: values may come before it.

Tests used:
[1] = molecular target: T1, human EGFRvIII protein on the surface of U87MG-hEGFRvIII cells (human, UniProt P00533 25-1210); assay: FACS on U87MG-hEGFRvIII cells
T1 construct: whole, on cells; Stably transfected U87MG cells; also called mutant EGFRvIII protein; U87MG-EGFRvIII
Protocol: (§1) The cells are washed twice with the HBSS buffer and are counted, and then the cells are diluted with the HBSS buffer to 2×10⁶ cells/ml, added with 1% goat serum blocking solution, with the percentage being the mass percentage, and incubated on ice for 30 minutes, and then centrifugally washed twice with the HBSS buffer. The collected cells are suspended to 2×10⁶ cells/mL with an FACS buffer (HBSS+1% BSA, with the percentage being the mass percentage), added to a 96-well FACS reaction plate at 100 μL/well, then added with 100 μL/well of the purified EGFRvIII antibody (samples to be tested) obtained in example 2, and incubated on ice for 2 hours. The plate is centrifugally washed twice with the FACS buffer, added with 100 μL/well of a fluorescence (Alexa 488) labeled secondary antibody (purchased from Invitrogen), and then incubated on ice for 1 hour. The plate is centrifugally washed 3 times with the FACS buffer, added with 100 μL/well of a fixing solution [4% (v/v) paraformaldehyde] for suspending the cells, and centrifugally washed twice with the FACS buffer after 10 minutes. The cells are suspended in 100 μL of the FACS buffer, and the results are detected and analyzed by FACS (FACS Calibur, purchased from BD). Data analysis is performed by using the software (CellQuest) to obtain the mean fluorescence intensity (MFI) of the cells. Data is further analyzed by using the software (GraphPad Prism5) to perform data fitting and calculate EC50. […] A431 cells (human epidermal cell cancer cell lines) have a large amount of wild-type EGFR protein expressed on the surface thereof. […] U87MG cells (human glioma cell lines) have a small amount of wild-type EGFR protein expressed on the surface thereof, while HEB cells (human glioma cell lines) have a high level of wild-type EGFR protein expression on the surface thereof.

[2] = molecular target: T2, biotin-labeled recombinant EGFRvIII protein (UniProt P00533 25-645, biotin-labeled); assay: competitive ELISA; competitor Murine anti-7E5
T2 construct: the construct is not described
Protocol: (§2) The purified antibodies to be tested are diluted with PBS to 1 μg/mL, coated onto a 96-well high-adsorption ELISA plate at 50 μL/well at 4° C. overnight, and then blocked with 250 μL of the blocking solution [PBS containing 0.01% (v/v) Tween20 and 1% (w/w) BSA] for one hour at room temperature, and each well is added with 0.05 μg/mL of the biotin-labeled recombinant EGFRvIII protein. Simultaneously, 5 μg/mL of the competitive antibody (i.e., the purified EGFRvIII antibody obtained in example 2) is added thereto, and incubated at 25° C.−37° C. for 1 to 2 hours. The plate is washed 3 times with the plate washing solution [PBS containing 0.01% (v/v) Tween20], and added with HRP (horseradish peroxidase) labeled streptavidin (purchased from Sigma). The plate is incubated for 0.5 hour at 37° C., and then washed 3 times with the plate washing solution [PBS containing 0.01% (v/v) Tween20]. The plate is added with 100 μL of TMB substrate/well, incubated for 30 minutes at room temperature, and then added with 100 μL of stopping solution (1.0N HCl)/well. A450 nm value is read using an ELISA plate reader (SpectraMax 384 plus, purchased from Molecular Device), and the results are shown in FIG. 6.

[3] = molecular target: T2, biotin-labeled recombinant EGFRvIII …; assay: competitive ELISA; competitor Murine anti-64F1
Protocol: as §2

[4] = molecular target: T2, biotin-labeled recombinant EGFRvIII …; assay: competitive ELISA; competitor Murine anti-75G7
Protocol: as §2

[5] = molecular target: T2, biotin-labeled recombinant EGFRvIII …; assay: competitive ELISA; competitor Murine anti-63A10
Protocol: as §2

[6] = molecular target: T1, human EGFRvIII protein on the surface …; assay: immunohistochemical staining, human glioma tissue chip
[7] = molecular target: T2, biotin-labeled recombinant EGFRvIII …; assay: competitive ELISA; competitor Control antibody 01
Protocol: as §2

[8] = molecular target: T2, biotin-labeled recombinant EGFRvIII …; assay: competitive ELISA; competitor Control antibody 02
Protocol: as §2

[9] = molecular target: T3, human EGFRvIII-hFc protein (human, UniProt P00533 25-645); assay: ELISA, EGFRvIII-hFc coated
T3 construct: extracellular domain; also called immunogen A; hFc-tagged EGFRvIII protein; not shown: human IgG Fc fragment (hFc) of the pCpC vector
Protocol: The purified immunogen A (EGFRvIII-hFc) obtained in example 1 (for the preparation method, see step (I) in example 1) is diluted with PBS to a final concentration of 1.0 μg/mL, and then added to a 96-well ELISA plate at 100 μl/well. The plate is sealed with a plastic film and incubated at 4° C. overnight. The next day, the plate is washed twice with a plate washing solution [PBS+0.01% (v/v) Tween20], and added with a blocking solution [PBS+0.01% (v/v) Tween20+1% (w/w) BSA] for blocking 2 hours at room temperature. […] The plate is incubated for 2 hours at 37° C., and then washed 3 times with the plate washing solution [PBS+0.01% (v/v) Tween20]. The plate is added with an HRP (horseradish peroxidase) labeled secondary antibody (purchased from Sigma), incubated at 37° C. for 2 hours, and then washed 3 times with the plate washing solution [PBS+0.01% (v/v) Tween20]. The plate is added with 100 μl of TMB substrate/well, incubated for 30 minutes at room temperature, and then added with 100 μl of stopping solution (1.0N HCl)/well. A450 nm value is read using an ELISA plate reader (SpectraMax 384plus, purchased from Molecular Device), and the results are shown in FIG. 11 and table 19.

[10] = molecular target: T4, human EGFRvIII protein on the cell surface (human, UniProt P00533 25-1210); assay: FACS on U87MG-hEGFRvIII cells
T4 construct: whole, on cells; the cell line is named under assay; also called hEGFRvIII; U87MG-hEGFRvIII
Protocol: as §1

[11] = molecular target: T5, human wild-type EGFR protein on the cell surface (human, UniProt P00533 25-1210); assay: FACS on A431 cells; A431 cells (large amount of wild-type EGFR on the surface)
T5 construct: whole, on cells; Endogenous on A431, HEB, U87MG cells and normal human primary hepatocytes; transfected on CHOk1-EGFR cells; The cell is named under assay; also called A431; HEB
Protocol: as §1

[12] = molecular target: T6, wild-type human EGFR protein on the surface of cells (A431, HEB, U87MG) (human, UniProt P00533 25-1210); assay: FACS on A431 cells
T6 construct: whole, on cells; One molecule for all three cell lines; the cell line is named under assay; also called wild-type EGFR
Protocol: as §1, with “The” for “The cells are washed twice with the HBSS buffer and are counted, and then the cells are diluted with the HBSS buffer to 2×10⁶ cells/ml, added with 1% goat serum blocking solution, with the percentage being the mass percentage, and incubated on ice for 30 minutes, and then centrifugally washed twice with the HBSS buffer. The”

B2: Murine anti-64F1 (antibody, V domains shown)
VH: QVQLQQSGAELARPGASVKMSCKASGYTFSSYTMHWAKQRPGQGLEWIGYINPSSGYTKYNQKFKDKATLTADKSSSTAYMQLSSLTSEDSIVYYCARGGGRGFAYWGQGTLVTVSA
VL: QIVLTQSPAIMSASPGERVTMTCSASSSVSYMYWYQQKPGSSPRLLIYDTSNLASGVPVRFSGSGSGTSYSLTISRVEAEDAATYYCQQWSSYSLTFGAGTKLELK
notes: Mouse hybridoma antibody; also called 64F1F8
EC50 [1]: 2 nM
competition rate [2]: 80%
competition rate [3]: 72%
competition rate [4]: 13%
competition rate [5]: 81%
positive samples of 70 GBM samples [6]: 24 samples
competition rate [7]: -5%
competition rate [8]: 69%

B3: Chimeric antibody 64F1 (antibody, human IgG1, V domains shown)
VH: B2 VH
VL: B2 VL
notes: also called clone 64F1F8
OD450 nm at 0.0001 nM antibody [9]: 0.08 OD450
OD450 nm at 0.001 nM antibody [9]: 0.11 OD450
OD450 nm at 0.01 nM antibody [9]: 0.35 OD450
OD450 nm at 0.1 nM antibody [9]: 2.23 OD450
OD450 nm at 1 nM antibody [9]: 3.72 OD450
OD450 nm at 10 nM antibody [9]: 3.78 OD450
OD450 nm at 100 nM antibody [9]: 3.7 OD450
EC50 [10]: 2.1 nM
EC50 [11]: 180 nM

More lines, in order of falling EC50 [1], values ahead:

EC50 [1]: 4.8 nM
competition rate [2]: 3%
competition rate [3]: -3%
competition rate [4]: 67%
competition rate [5]: 9%
competition rate [7]: -5%
competition rate [8]: -2%
B4: Murine anti-75G7 (antibody, V domains shown)
VH: EVQLQQSGPELVKPGASVKIPCKASGYTFTDYNMDWVKQSHGKSLEWIGDINPNNGDTIYNQKFKGKATLTVDKSSSTAYMELRSLTSEDTAVYYCARGDYDGYYPVYYAMDYWGQGTSVTVSS
VL: ENVLTQSPAIMSASPGEKVTMTCRASSSVSSSYLHWYQQKSGASPKLWIFSTSNLAAGVPARFSGSGSGTSYSLTVSSVEAEDAATYYCQQYSGYPLTFGAGTKLELK
notes: Mouse hybridoma antibody; also called 75G7C6

EC50 [1]: 3.1 nM
competition rate [2]: 82%
competition rate [3]: 73%
competition rate [4]: 20%
competition rate [5]: 89%
positive samples of 70 GBM samples [6]: 24 samples
competition rate [7]: -3%
competition rate [8]: 79%
B1: Murine anti-63A10 (antibody, V domains shown)
VH: B2 VH with S30I, Y32F, A37V, S54N, D73G, K74Q, I92A, A97T
VL: DILMTQSPSSMSVSLGDTVTITCHASQDINSNIGWLQQKPGKSFKALIYHGTNLEDGVPSRFSGSGSGADYSLTISSLESEDFADYYCVQYAQFPFTFGSGTKLEIK
notes: Mouse hybridoma antibody; also called 63A10A7

binding result [12]: no binding
EC50 [1]: 2.9 nM
competition rate [2]: 85%
competition rate [3]: 71%
competition rate [4]: 23%
competition rate [5]: 70%
positive samples of 70 GBM samples [6]: 24 samples
competition rate [7]: -2%
competition rate [8]: 66%
B5: Murine anti-7E5 (antibody, V domains shown)
VH: EIQLQQSGPELVKPGASVKVSCKASGYSFTDYNMYWVKQSHGKSLEWIGYVDPSNGGTNYNQKFKGKATLTVDKSSSTAFMHLNSLTSEDSAVYYCARGFFDYWGQGTTLTVSS
VL: DIVMTQSPSSLTVTAGEKVTMSCKSSQSLLNSGNQKNYLTWYQQKPGQPPKLLIYWASNRESGVPDRFTGSGSGKDFTLTISSVQAEDLAVYYCQNDYRYPVTFGAGTKLELK
notes: Mouse hybridoma antibody; also called 7E5-2A9; murine anti-7E5-2
